Tests used:
[1] = system: native hexamer form of MRJP1
[2] = system: MGO-modified MRJP (MRJP mixture treated with MGO)
[3] = system: monomeric form of royalactin

Q: Which results are given for Cathepsin B from bovine spleen?
A: Cathepsin B digestion (data not shown) [1]: the native hexamer form of MRJP1 and the monomeric form of royalactin were readily degraded by this enzyme; Cathepsin B digestion, native PAGE [2]: Cathepsin B is unable to hydrolyze the protein at pH 7.0 but was able to hydrolyze the lower molecular weight species produced at pH 4.0; Cathepsin B digestion (data not shown) [3]: the native hexamer form of MRJP1 and the monomeric form of royalactin were readily degraded by this enzyme
